B1: human CDK4 (enzyme, UniProt P11802 1-303, looked up)
chain: MATSRYEPVAEIGVGAYGTVYKARDPHSGHFVALKSVRVPNGGGGGGGLPISTVREVALLRRLEAFEHPNVVRLMDVCATSRTDREIKVTLVFEHVDQDLRTYLDKAPPPGLPAETIKDLMRQFLRGLDFLHANCIVHRDLKPENILVTSGGTVKLADFGLARIYSYQMALTPVVVTLWYRAPEVLLQSTYATPVDMWSVGCIFAEMFRRKPLFCGNSEADQLGKIFDLIGLPPEDDWPRDVSLPRGAFPPRGPRPVQSVVPEMEESGAQLLLEMLTFNPHKRISAFRALQHSYLHKDEGNPE
notes: also called PSK-J3; p33^CDK4

Target: T1, human cyclin D1 (human, UniProt P24385 1-295)
T1 construct: Endogenous 35 kDa protein in co-immunoprecipitations; also called p35^cyclin D1; p35
Test: anti-cyclin D1 immunoprecipitation

T1 sequence (P24385 whole entry): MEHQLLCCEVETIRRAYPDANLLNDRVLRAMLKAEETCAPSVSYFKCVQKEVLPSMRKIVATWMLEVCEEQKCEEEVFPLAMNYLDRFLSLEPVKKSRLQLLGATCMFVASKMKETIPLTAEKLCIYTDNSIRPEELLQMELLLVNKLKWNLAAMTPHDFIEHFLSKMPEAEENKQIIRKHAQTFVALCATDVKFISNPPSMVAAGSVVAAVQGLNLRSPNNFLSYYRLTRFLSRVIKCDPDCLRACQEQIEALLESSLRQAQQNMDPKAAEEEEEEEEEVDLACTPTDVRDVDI

| Molecule | share of cyclin D1-associated protein lost in RIPA buffer (0.1% SDS) against NP40 (0.5%) buffer [%] |
| --- | --- |
| p21 (polypeptide of 21 kDa apparent molecular weight) | > 90 |
| B1 | > 90 |
